According to publication PMC8415103 (Biochemistry, 2021):

Experiments:
[1] = target: NikS (Streptomyces tendae, UniProt Q9F2E5); assay: steady-state amide ligation kinetics, substrate inhibition model; assay type: biochemical; conditions: HPHT as co-substrate
[2] = substrate: N[C@H](C(=O)O)[C@H]1O[C@@H](n2cc(C(=O)O)c(=O)[nH]c2=O)[C@H](O)[C@@H]1O; assay: steady-state amide ligation kinetics, Michaelis-Menten fit; assay type: biochemical, Streptomyces asoensis; conditions: 200 μM CPOAA, 1 mM ATP, 3 mM MgCl2
[3] = substrate: N[C@H](C(=O)O)[C@H]1O[C@@H](n2ccc(=O)[nH]c2=O)[C@H](OP(=O)(O)O)[C@@H]1O; assay: as above; assay type: biochemical, Streptomyces asoensis; conditions: 200 μM CPOAA, 1 mM ATP, 3 mM MgCl2
[4] = substrate: N[C@H](C(=O)O)[C@H]1O[C@@H](n2ccc(=O)[nH]c2=O)[C@H](O)[C@@H]1O; assay: as above; assay type: biochemical, Streptomyces asoensis; conditions: 200 μM CPOAA, 1 mM ATP, 3 mM MgCl2
[5] = substrate: N[C@H](C(=O)O)[C@H]1O[C@@H](n2ccc(=O)[nH]c2=O)[C@H](OP(=O)(O)O)[C@@H]1O; assay: steady-state amide ligation kinetics, substrate inhibition model; assay type: biochemical, Streptomyces tendae; conditions: HPHT as co-substrate

Q: `N[C@H](C(=O)O)[C@H]1O[C@@H](n2ccc(=O)[nH]c2=O)[C@H](OP(=O)(O)O)[C@@H]1O` [compound 6, AHAP] was tested. Which Ki [1] did it give?
A: 111 ± 38 µM

B1: PolG (Streptomyces asoensis) (protein)
chain: MFLLLNNKPILHRVPEWFPQARQELIVVSTRSGLGTSAFPELARGFRHLHLVSSLDRPGLEEDLVALCRRFGVRRVLSTGEREVLPAATLRERLGLPGQDVACATAYRDKYTMKSLLTEAGIPVAPMRRLASPADLDAFADEAGFPLVVKSRLSGGSNGTRVLWDGDALTAFTDDWAAGRTAAPDLAEAWVEGDFYHINGLMRDGRILLAQPSYQPYSDWFSVAYDAPGMSGMMPDEDPMSARLRDTAAKVVATMPAVPGVCAFQVEFFHTPDDRLVVCETACRAGGSRMVETHEDTLGVHLHGASLLGQAGRSDQVTIRPTGRRQGYARFPSAHGVLRHLPRRSPLPQTLLYTATGEEGRHYDPATSLGSSVAEIVVSLTGPDTAAELLAVETWWESAVVWQDRRNPVPDRFKSVHRVRPDTRERALHV
Q: Which results are given for B1?
A: Km [2]: 334 ± 68 µM; kcat [2]: 0.0233 ± 0.0067 s⁻¹; Km [3]: 9.1 ± 0.4 µM; kcat [3]: 0.0583 ± 0.0033 s⁻¹; Km [4]: 931 ± 122 µM; kcat [4]: 0.0112 ± 0.00067 s⁻¹

B2: NikS (Streptomyces tendae) (protein)
chain: MKAEQGPFLLLNTKKIVSRLHEWFPDAARELVVVTTKADIPSADISAYARRFLHLEVVPNLWELSDDELLALARRFGVRRILSLGEREVLRAARIRAELGLPGQSLASATAYRDKHVMKSTLAAAGIDVAPMRKFRTNDDLAEFAWKVGFPVVVKELDSGASNGTVVLMDEEDLRALPERATAAPRLAEAWVEGDFYHVNGLMKDGEVVLAVPSRNLYSDWFSVAYDAPTMTGMMPDDHPLSERLRSTARQVVAALPAVPDLCAFHLELFHTADDRVVVCEIACRAGAALVSDVHEAVLGVNFHGASLLGQAGRGDQVEIRPTGERLGFVWFPPAKGVLRALPDTCPLPGTVSYRPCGDIGRRYGSSSGLGRPIAEMVFRLTEPDTGAELRRIEEWWDDNVVWEHRTNAVPDRWKTPRRKPADA
Q: Which Km [5] does the source give for B2 here?
A: 10.9 ± 2.6 µM

Q: And the kcat [5]?
A: 0.0283 ± 0.005 s⁻¹
